Assay results published in article PMC2756588.

T1: Abp1, P15891
T1 sequence (P15891 535-592, looked up): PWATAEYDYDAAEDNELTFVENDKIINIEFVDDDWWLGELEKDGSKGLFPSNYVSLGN

T2: Bbc1, P47068
T2 sequence (P47068 1-78, looked up): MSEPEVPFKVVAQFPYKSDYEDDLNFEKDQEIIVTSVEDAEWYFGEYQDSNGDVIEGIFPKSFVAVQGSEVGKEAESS

T3: Boi1, P38041
T3 sequence (P38041 1-86, looked up): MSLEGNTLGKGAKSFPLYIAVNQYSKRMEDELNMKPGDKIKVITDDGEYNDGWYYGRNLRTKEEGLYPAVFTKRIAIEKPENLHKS

T4: Boi2, P39969
T4 sequence (P39969 32-116, looked up): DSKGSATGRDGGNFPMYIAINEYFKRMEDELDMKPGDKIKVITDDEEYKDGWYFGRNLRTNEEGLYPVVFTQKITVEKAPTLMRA

T5: Bud14, P27637
T5 sequence (P27637 247-328, looked up): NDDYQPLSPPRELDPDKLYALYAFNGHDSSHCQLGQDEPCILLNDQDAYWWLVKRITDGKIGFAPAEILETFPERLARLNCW

T6: Bzz1-1, P38822
T6 sequence (P38822 478-572, looked up): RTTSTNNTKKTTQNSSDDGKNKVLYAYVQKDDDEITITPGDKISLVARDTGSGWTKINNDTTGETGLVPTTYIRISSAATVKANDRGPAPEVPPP

T7: Bzz1-2, P38822
T7 sequence (P38822 568-633, looked up): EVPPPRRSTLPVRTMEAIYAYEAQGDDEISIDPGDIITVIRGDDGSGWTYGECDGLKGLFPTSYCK

T8: Cdc25, P04821
T8 sequence (P04821 50-136, looked up): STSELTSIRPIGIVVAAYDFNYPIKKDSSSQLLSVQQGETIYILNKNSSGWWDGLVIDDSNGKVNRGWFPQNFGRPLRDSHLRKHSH

T9: Cyk3, Q07533
T9 sequence (Q07533 1-83, looked up): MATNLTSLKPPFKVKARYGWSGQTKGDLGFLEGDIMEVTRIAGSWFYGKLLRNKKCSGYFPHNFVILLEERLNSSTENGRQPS

T10: Fus1, P11710
T10 sequence (P11710 432-512, looked up): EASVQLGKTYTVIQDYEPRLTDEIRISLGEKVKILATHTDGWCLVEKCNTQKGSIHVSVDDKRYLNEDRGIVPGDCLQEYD

T11: Hof1, Q05080
T11 sequence (Q05080 590-669, looked up): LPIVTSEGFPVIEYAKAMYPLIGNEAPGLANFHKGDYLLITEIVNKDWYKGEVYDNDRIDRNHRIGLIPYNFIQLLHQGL

T12: Hse1, P38753
T12 sequence (P38753 208-285, looked up): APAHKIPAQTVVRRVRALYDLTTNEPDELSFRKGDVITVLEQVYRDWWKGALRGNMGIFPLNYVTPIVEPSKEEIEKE

T13: Lsb1, P53281
T13 sequence (P53281 45-122, looked up): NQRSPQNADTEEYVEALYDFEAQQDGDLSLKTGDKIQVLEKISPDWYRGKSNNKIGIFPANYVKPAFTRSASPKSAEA

T14: Lsb3, P43603
T14 sequence (P43603 385-451, looked up): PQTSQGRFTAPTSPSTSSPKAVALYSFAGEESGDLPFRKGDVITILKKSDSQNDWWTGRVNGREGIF

T15: Lsb4, P32793
T15 sequence (P32793 402-468, looked up): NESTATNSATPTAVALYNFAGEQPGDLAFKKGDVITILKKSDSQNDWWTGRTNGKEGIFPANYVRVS

T16: Myo5, Q04439
T16 sequence (Q04439 1072-1160, looked up): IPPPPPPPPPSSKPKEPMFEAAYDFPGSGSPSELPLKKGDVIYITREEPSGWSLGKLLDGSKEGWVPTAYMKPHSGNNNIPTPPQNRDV

T17: Nbp2, Q12163
T17 sequence (Q12163 103-180, looked up): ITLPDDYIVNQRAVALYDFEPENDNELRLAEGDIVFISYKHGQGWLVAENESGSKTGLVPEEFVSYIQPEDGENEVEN

T18: Pex13, P80667
T18 sequence (P80667 295-386, looked up): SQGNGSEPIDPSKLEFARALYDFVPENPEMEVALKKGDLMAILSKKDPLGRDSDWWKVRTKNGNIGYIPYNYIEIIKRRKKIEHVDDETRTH

T19: Pin3, Q06449
T19 sequence (Q06449 53-122, looked up): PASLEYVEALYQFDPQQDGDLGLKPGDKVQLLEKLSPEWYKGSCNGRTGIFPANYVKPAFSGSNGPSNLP

T20: Sla1-2, P32790
T20 sequence (P32790 60-140, looked up): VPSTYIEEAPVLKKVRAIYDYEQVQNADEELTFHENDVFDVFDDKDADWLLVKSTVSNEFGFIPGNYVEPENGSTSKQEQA

T21: Sla1-3, P32790
T21 sequence (P32790 344-424, looked up): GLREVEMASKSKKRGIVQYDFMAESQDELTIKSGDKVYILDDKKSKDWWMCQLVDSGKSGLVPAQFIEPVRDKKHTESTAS


Legend:
Experiment in all cases: SPOT array
Abp1, P15891 = target: T1, Abp1, P15891; details: median of control spots 935
Bbc1, P47068 = target: T2, Bbc1, P47068; details: median of control spots 796
Bem1-1, P29366 = details: median of control spots 4282
Bem1-1, P29366, sequence (P29366 55-141): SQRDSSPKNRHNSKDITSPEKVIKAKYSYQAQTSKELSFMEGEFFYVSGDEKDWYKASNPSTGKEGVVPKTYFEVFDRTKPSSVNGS

Bem1-2, P29366 = details: median of control spots 4347
Bem1-2, P29366, sequence (P29366 139-227): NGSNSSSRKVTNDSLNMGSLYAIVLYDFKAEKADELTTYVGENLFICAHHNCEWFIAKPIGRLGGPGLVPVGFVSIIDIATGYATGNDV

Boi1, P38041 = target: T3, Boi1, P38041; details: median of control spots 1162
Boi2, P39969 = target: T4, Boi2, P39969; details: median of control spots 1161
Bud14, P27637 = target: T5, Bud14, P27637; details: median of control spots 956
Bzz1-1, P38822 = target: T6, Bzz1-1, P38822; details: median of control spots 4446
Bzz1-2, P38822 = target: T7, Bzz1-2, P38822; details: median of control spots 4538
Cdc25, P04821 = target: T8, Cdc25, P04821; details: median of control spots 969
Cyk3, Q07533 = target: T9, Cyk3, Q07533; details: median of control spots 1451
Fus1, P11710 = target: T10, Fus1, P11710; details: median of control spots 1200
GST = details: median of control spots 978
Hof1, Q05080 = target: T11, Hof1, Q05080; details: median of control spots 4086
Hse1, P38753 = target: T12, Hse1, P38753; details: median of control spots 1727
Lsb1, P53281 = target: T13, Lsb1, P53281; details: median of control spots 388
Lsb3, P43603 = target: T14, Lsb3, P43603; details: median of control spots 406
Lsb4, P32793 = target: T15, Lsb4, P32793; details: median of control spots 397
Myo3, P36006 = details: median of control spots 468
Myo5, Q04439 = target: T16, Myo5, Q04439; details: median of control spots 471
Nbp2, Q12163 = target: T17, Nbp2, Q12163; details: median of control spots 357
Pex13, P80667 = target: T18, Pex13, P80667; details: median of control spots 1341
Pin3, Q06449 = target: T19, Pin3, Q06449; details: median of control spots 2171
Rvs167, P39743 = details: median of control spots 2707
Rvs167, P39743, sequence (P39743 419-482): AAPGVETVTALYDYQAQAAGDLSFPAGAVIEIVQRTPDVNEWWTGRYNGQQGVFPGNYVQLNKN

Sho1, P40073 = details: median of control spots 1148
Sho1, P40073, sequence (P40073 287-367): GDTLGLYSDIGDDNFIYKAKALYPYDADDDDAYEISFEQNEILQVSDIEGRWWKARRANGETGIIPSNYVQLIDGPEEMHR

Sla1-2, P32790 = target: T20, Sla1-2, P32790; details: median of control spots 712
Sla1-3, P32790 = target: T21, Sla1-3, P32790; details: median of control spots 5475

Binder | SPOT intensity (Abp1, P15891) | SPOT intensity (Bbc1, P47068) | SPOT intensity (Bem1-1, P29366) | SPOT intensity (Bem1-2, P29366) | SPOT intensity (Boi1, P38041) | SPOT intensity (Boi2, P39969) | SPOT intensity (Bud14, P27637) | SPOT intensity (Bzz1-1, P38822) | SPOT intensity (Bzz1-2, P38822) | SPOT intensity (Cdc25, P04821) | SPOT intensity (Cyk3, Q07533) | SPOT intensity (Fus1, P11710) | SPOT intensity (GST) | SPOT intensity (Hof1, Q05080) | SPOT intensity (Hse1, P38753) | SPOT intensity (Lsb1, P53281) | SPOT intensity (Lsb3, P43603) | SPOT intensity (Lsb4, P32793) | SPOT intensity (Myo3, P36006) | SPOT intensity (Myo5, Q04439) | further results
VTHRLRISIPGITGR | 225 | 30 | 2 | 4 | 0 | 0 | 12 | 0 | 0 | 19 | 0 | 14 | 1 | 0 | 5 | 382 | 8 | 22 | 13 | 11 | SPOT intensity (Nbp2, Q12163): 72; SPOT intensity (Pex13, P80667): 20; SPOT intensity (Pin3, Q06449): 46; SPOT intensity (Rvs167, P39743): 0; SPOT intensity (Sho1, P40073): 180; SPOT intensity (Sla1-2, P32790): 4; SPOT intensity (Sla1-3, P32790): 0
NAGIRPKFILALNDE | 16 | 24 | 0 | 0 | 8 | 2 | 26 | 2 | 6 | 22 | 1 | 0 | 0 | 1 | 2 | 0 | 0 | 0 | 0 | 0 | SPOT intensity (Nbp2, Q12163): 2; SPOT intensity (Pex13, P80667): 10; SPOT intensity (Pin3, Q06449): 3; SPOT intensity (Rvs167, P39743): 4; SPOT intensity (Sho1, P40073): 31; SPOT intensity (Sla1-2, P32790): 1; SPOT intensity (Sla1-3, P32790): 2
ILARAILTIPRVLDK | 189 | 35 | 1 | 0 | 0 | 0 | 10 | 0 | 2 | 36 | 0 | 9 | 0 | 0 | 5 | 23 | 8 | 38 | 17 | 3 | SPOT intensity (Nbp2, Q12163): 17; SPOT intensity (Pex13, P80667): 56; SPOT intensity (Pin3, Q06449): 107; SPOT intensity (Rvs167, P39743): 0; SPOT intensity (Sho1, P40073): 137; SPOT intensity (Sla1-2, P32790): 6; SPOT intensity (Sla1-3, P32790): 4

Further lines, with some results ahead:

SPOT intensity (Abp1, P15891) | SPOT intensity (Bbc1, P47068) | SPOT intensity (Bem1-1, P29366) | SPOT intensity (Bem1-2, P29366) | SPOT intensity (Boi1, P38041) | SPOT intensity (Boi2, P39969) | SPOT intensity (Bud14, P27637) | SPOT intensity (Bzz1-1, P38822) | SPOT intensity (Bzz1-2, P38822) | SPOT intensity (Cdc25, P04821) | SPOT intensity (Cyk3, Q07533) | SPOT intensity (Fus1, P11710) | SPOT intensity (GST) | SPOT intensity (Hof1, Q05080) | SPOT intensity (Hse1, P38753) | SPOT intensity (Lsb1, P53281) | SPOT intensity (Lsb3, P43603) | SPOT intensity (Lsb4, P32793) | SPOT intensity (Myo3, P36006) | SPOT intensity (Myo5, Q04439) | Binder | further results
26 | 2 | 22 | 28 | 2 | 1 | 8 | 0 | 13 | 42 | 0 | 180 | 0 | 6 | 3 | 1 | 3 | 5 | 7 | 4 | HHKRRPTTIDVPGLT | SPOT intensity (Nbp2, Q12163): 1; SPOT intensity (Pex13, P80667): 18; SPOT intensity (Pin3, Q06449): 28; SPOT intensity (Rvs167, P39743): 0; SPOT intensity (Sho1, P40073): 67; SPOT intensity (Sla1-2, P32790): 2; SPOT intensity (Sla1-3, P32790): 4
166 | 339 | 0 | 4 | 23 | 4 | 29 | 3 | 7 | 176 | 4 | 168 | 2 | 12 | 25 | 47 | 6 | 25 | 34 | 10 | LLIRWLILMPLVGSR | SPOT intensity (Nbp2, Q12163): 215; SPOT intensity (Pex13, P80667): 78; SPOT intensity (Pin3, Q06449): 47; SPOT intensity (Rvs167, P39743): 1; SPOT intensity (Sho1, P40073): 150; SPOT intensity (Sla1-2, P32790): 3; SPOT intensity (Sla1-3, P32790): 7
0 | 0 | 0 | 1 | 4 | 1 | 8 | 0 | 0 | 18 | 1 | 9 | 1 | 0 | 0 | 0 | 0 | 0 | 1 | 0 | GTIARPLFLVVLFFI | SPOT intensity (Nbp2, Q12163): 0; SPOT intensity (Pex13, P80667): 11; SPOT intensity (Pin3, Q06449): 3; SPOT intensity (Rvs167, P39743): 0; SPOT intensity (Sho1, P40073): 0; SPOT intensity (Sla1-2, P32790): 0; SPOT intensity (Sla1-3, P32790): 0
